Experiment [1] has as its target cyno SIRPα stably expressed on CHOK1 cells (cyno). The experiment in a line: FACS, CHOK1-Cyno SIRPα cells. On the technique in general: A flow cytometer gives signals particle by particle.
Experiment [2] concerns the target human SIRPα v2 expressed on cells (CHOK1 stable line KYinno KC-1720) (human) (UniProt P78324). As to the kind of experiment: FACS, CHOK1-hSIRPα v2 cells.
Experiment [3] shares this target. As to the kind of experiment: competitive FACS, mFc-CD47 ECD on CHOK1-human SIRPα v2 cells.
For experiment [4], the target named is T1, C57BL/6 mouse SIRPα ECD recombinant protein (6×His tagged) (C57BL/6 mouse) (UniProt P97797).
T1 sequence (looked up): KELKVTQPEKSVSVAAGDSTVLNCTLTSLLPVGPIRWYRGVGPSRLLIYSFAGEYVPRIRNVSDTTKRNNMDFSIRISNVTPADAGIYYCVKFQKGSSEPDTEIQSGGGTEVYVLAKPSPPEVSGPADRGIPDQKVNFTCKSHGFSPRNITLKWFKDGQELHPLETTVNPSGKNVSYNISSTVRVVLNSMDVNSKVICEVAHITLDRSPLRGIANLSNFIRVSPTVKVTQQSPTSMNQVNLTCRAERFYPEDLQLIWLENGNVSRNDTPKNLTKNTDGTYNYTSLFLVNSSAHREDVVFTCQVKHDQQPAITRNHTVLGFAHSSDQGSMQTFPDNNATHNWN
The experiment in a line: ELISA, C57BL/6 mouse SIRPα ECD. Background: ELISA stands for enzyme-linked immunosorbent assay.

Experiment [5] addresses Human SIRPα v2 (antigen of the Octet and Biacore affinity measurements) (human) (UniProt P78324). As to the kind of experiment: BLI (Octet), 1:1 binding model.
Experiment [6] shares this target. As to the kind of experiment: SPR (Biacore), 1:1 binding model.
For experiment [7], the target named is human SIRPα v2 expressed on cells (CHOK1 stable line KYinno KC-1720) (human) (UniProt P78324). The experiment in a line: FACS, CHOK1 cells stably expressing human SIRPα v2.
Experiment [8] shares this target. As to the kind of experiment: FACS, CHOK1-hSIRPα v2 cells. The source holds these as a separate data set.

Like-named read-outs stand apart in the source and are kept apart here.

B1: hu1H9G4 (antibody, V domains shown)
VH: QVQLVQSGAEVKKPGASVKVSCKASGYTFTSYWITWVKQAPGQGLEWIGDIYPGSGSTNHIEKFKSKATLTVDTSISTAYMELSRLRSDDTAVYYCATGYGSSYGYFDYWGQGTLVTVSS
VL: DIQMTQSPSSLSASVGDRVTITCRASENIYSYLAWYQQKPGKAPKLLIYTAKTLAEGVPSRFSGSGSGTDFTLTISSLQPEDFATYYCQHQYGPPFTFGQGTKLELK
The term EC50 denotes the midpoint of the concentration-response curve. A higher EC50 goes with a need for much substance. As a reminder, the IC50 is the midpoint of a concentration-inhibition curve. Read a low IC50 as inhibition by little substance. In experiment [1], B1 yielded an EC50 of 0.72 nM and a TOP MFI of 14900 MFI. In experiment [2], this molecule returned a half-maximal effective concentration (EC50) of 0.85 nM and a TOP MFI of 18700 MFI. In experiment [3], this molecule displayed an IC50 of 5.61 nM and a TOP blocking (%) of 98.7%. In experiment [4], the OD450 at 100 nM is 0.23 OD450.

B2: 025c (antibody, V domains shown)
VH: EVQLQQSGAELVKPGASVKLSCTASGFNIKDYYMHWVKQRTEQGLEWIGRIDPEDGETKYAPKFQGKATITADTSSNTAYLQLSSLTSEDTAVYYCDRGLAYWGQGTLVTVSA
VL: QIVLTQSPAIMSASPGEKVTLTCSASSSVSSSYLYWYQQKPGSSPKLWIYSTSNLASGVPARFSGSGSGTSYSLTISSMEAEDAASYFCHQWSSYPYTFGGGTKLEIK
Usually Kd stands for the equilibrium constant for the complex coming apart. The low end stands for a tighter complex, the high end for a looser complex. What is called koff is a measure of how fast the partners let go of each other. Low readings indicate a long-lived complex, high ones a short-lived complex. A word on the kon: it is the second-order rate constant of association. Higher therefore signals faster complex formation. In general, EC50 (read off the curve) refers to the concentration giving half of the maximal effect. In experiment [1], B2 had an EC50 of 0.69 nM and a TOP MFI of 30800 MFI. In experiment [5], this molecule showed a dissociation constant (Kd) of 2.67 nM, an off-rate constant (koff) of 0.00293 s⁻¹ and an association rate constant (kon) of 1.1e+06 M⁻¹ s⁻¹. In addition, in experiment [2], the EC50 is 1.34 nM and the TOP MFI came to 51600 MFI. Moreover, in experiment [6], the Kd is 1.69 nM, the koff was found to be 0.00254 s⁻¹ and the kon came to 1.51e+06 M⁻¹ s⁻¹. In experiment [3], the half-inhibitory concentration (IC50) is 0.63 nM and the TOP blocking (%) worked out at 99.7%. In experiment [7], this molecule came in with an EC50 (read off the curve) of 1 nM. In experiment [8], the concentration giving a half-maximal response (EC50) turned out to be 0.99 nM and the TOP MFI turned out to be 53000 MFI.

These data come from patent publication US20250270315A1.
